Data from article PMC12926040, “ADP-ribose is a competitive inhibitor of methanol dehydrogenases from Bacillus methanolicus” (The Journal of Biological Chemistry, 2025).

Assays:
[1] = Specific activity of ACT and its mutants for the hydrolysis of ADPR; format: biochemical
Experimental: After a 5-minute incubation at 25°C, the reaction was terminated by the addition of 10 μL of 3 M H₂SO₄. The products were subsequently analyzed by HPLC.

BmMDH2 = BmMDH2 (Bacillus methanolicus, UniProt I3E949); assay: BmMDH2 activation by ACT, NADH formation monitored at 340 nm; format: biochemical; settings: 100 nM BmMDH2, 3 mM NAD+, pH 9.5
Experimental: Figure 1 ACT-catalyzed conversion of NAD^+ into a compound that activates BmMDH2.A, effect of ACT concentration on BmMDH2 activation. The formation of NADH was monitored at 340 nm, with 100 nM BmMDH2 in glycine-NaOH buffer (pH 9.5) containing 0 to 125 nM ACT, 3 mM NAD^+, 20 mM ethanol, 5 mM MgCl2 and 0.5 mM MnCl2. Data for the initial 10 min are highlighted in the right panel. Data were from a single experiment. B, effects of the following treatments on BmMDH2 activation: preincubated ACT & NAD^+ (red), preincubated ACT & BmMDH2 (blue), ultrafiltrate of preincubated ACT & NAD^+ (green), and ultrafiltrate of ACT (purple) or NAD^+ (cyan) solutions. Preincubations were performed in glycine-NaOH buffer (pH 9.5) with 5 mM MgCl2 and 0.5 mM MnCl2 at 25 °C for 30 min. Ethanol, BmMDH2, or NAD^+ was subsequently added to achieve final concentrations of 10 nM ACT, 20 mM ethanol, 3 mM NAD^+, and 200 nM BmMDH2. For ultrafiltration, preincubated samples were filtered (10 kDa cutoff, Millipore), and the flowthrough was used for activation assays. Data represent means ± SD (n = 3). C, effect of NAD^+ concentration on BmMDH2 activation. Activity was measured using 100 nM BmMDH2 in glycine-NaOH buffer (pH 9.5) with 50 nM ACT, 0 to 20 mM NAD^+, 5 mM MgCl2, and 0.5 mM MnCl2. Data were from a single experiment. D, time-course of BmMDH2 activation. Reaction were performed in 200 μl glycine-NaOH buffer (100 mM, pH 9.5) with 5 mM MgCl2, 0.5 mM MnCl2, 0.25 mM NAD^+, 0.1 μM BmMDH2, 20 mM ethanol, and 50 nM ACT. Fresh NAD^+ (4 μl, 150 mM) was added twice during the reaction. Data were from a single experiment. E, catalytic rates of BmMDH2 were calculated from the slopes of the data in panel D. Additional replicates of the experiments shown in panels A, C, and D are provided in Fig. S4. […]
The catalytic processes of MDHs were monitored by measuring NADH absorbance at 340 nm using a Tecan SPARK UV-Vis plate reader (Tecan Austria GmbH) at 25 °C. […]

BmMDH1 = settings: ref [14], [15]; cited from earlier work

BmMDH2, sequence (I3E949 entry or part of it): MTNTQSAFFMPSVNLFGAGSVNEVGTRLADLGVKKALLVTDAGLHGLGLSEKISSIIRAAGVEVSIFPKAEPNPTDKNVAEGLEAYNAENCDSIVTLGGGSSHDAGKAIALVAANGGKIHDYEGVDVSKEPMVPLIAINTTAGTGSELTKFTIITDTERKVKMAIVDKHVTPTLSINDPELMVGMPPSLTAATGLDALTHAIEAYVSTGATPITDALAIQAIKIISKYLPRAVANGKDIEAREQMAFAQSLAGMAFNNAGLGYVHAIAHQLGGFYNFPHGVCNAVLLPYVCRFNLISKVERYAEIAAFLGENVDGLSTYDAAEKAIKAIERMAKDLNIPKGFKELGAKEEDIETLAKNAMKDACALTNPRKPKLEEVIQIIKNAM

B1: ACT: activator protein ACT, Nudix hydrolase from B. methanolicus MGA3 with ADPRase activity (protein)
chain: MGKLFEEKTIKTEQIFSGRVVKLQVDDVELPNGQTSKREIVRHPGAVAVIAITNENKIVMVEQYRKPLEKSIVEIPAGKLEKGEDPRVTALRELEEETGYECEQMEWLISFATSPGFADEIIHLYVAKGLSKKENAAGLDEDEFVDLIELTLDEALQYIKEKRIYDSKTVIAVQYLQLQEALK
modifications: left off: His tag (from the vector pET21a(+) and the Ni-affinity column), end not stated, state not stated
- Specific activity (ADPRase) ([1]; pH 8.0, 400 μM ADPR, 5 mM MgCl2, 25 °C): 61.2 ± 0.5 U/mg
- ADPRase activity ([1]; pH 9.5): 51.6 ± 0.4 U/mg
- time to full activation of BmMDH2 (BmMDH2; 31.3 nM ACT): ≤ 2.8 min
- ACT concentration that triggered immediate BmMDH2 activation (BmMDH2): > 62 nM
- increase of BmMDH1 activity (BmMDH1): 40 fold
